Assay results reported in publication PMC6035287.

Biological target: bovine brain tubulin (free tubulin) (bovine) (UniProt Q6B856)
Assay: ITC; TOG domain proteins in the syringe (150 μM CLASP2 TOG1, TOG2, TOG3; 200 μM CLIP-ID; 250 μM Stu2 TOG1), 15 μM bovine brain tubulin in the cell; BRB80 with 50 mM NaCl, 25°C; one set of sites model

Kd: 18.8 nM
B1: Stu2 TOG1 (domain or fragment)
chain: MSGEEEVDYTTLPLEERLTYKLWKARLEAYKELNQLFRNSVGDISRDDNIQIYWRDPTLFAQYITDSNVVAQEQAIVALNSLIDAFASSSLKNAHNITLISTWTPLLVEKGLTSSRATTKTQSMSCILSLCGLDTSITQSVELVIPFFEKKLPKLIAAAANCVYELMAAFGLTNVNVQTFLPELLKHVPQLAGHGDRNVRSQTMNLIVEIYKVTGNNSDLLEEILFKKLKPIQVKDLHKLFAKVGDEPSSSKMLFEWEKRELEKKRSQEEEA
